Experimental data reported in patent publication US20190359986A1 (ROCHE INNOVATION CENTER COPENHAGEN A S, published 2019).
Residue numbers refer to the chain shown, from its start.

Molecular target: TNF-α
Experiment: cell-based or functional assay

B1: human TNFR2 Δ7 without His-tag, from clone 1230-1 transfected HeLa cells (receptor)
chain: LPAQVAFTPYAPEPGSTCRLREYYDQTAQMCCSKCSPGQHAKVFCTKTSDTVCDSCEDSTYTQLWNWVPECLSCGSRCSSDQVETQACTREQNRICTCRPGWYCALSKQEGCRLCAPLRKCRPGFGVARPGTETSDVVCKPCAPGTFSNTTSSTDICRPHQICNVVAIPGNASMDAVCTSTSPTRSMAPGAVHLPQPVSTRSQHTQPTPEPSTAPSTSFLLPMGPSPPAEGSTGDFALPVEKPLCLQREAKVPHLPADKARGTQGPEQQHLLITAPSSSSSSLESSASALDRRAPTRNQPQAPGVEASGAGEARASTGSSDSSPGGHGTQVNVTCIVNVCSSSDHSSQCSSQASSTMGDTDSSPSESPKDEQVPFSKEECAFRSQLETPETLLGSTEEKPLPLGVPDAGMKPS
EC50, L929 cytotoxicity assay; extracellular media from 1230-1 transfected HeLa cells: 1.4 ng/mL

B2: human TNFR2 Δ7 with glutamine 352 changed to arginine, from clone 1138-5 transfected HeLa cells (receptor)
chain: B1 chain with Q330R
EC50, L929 cytotoxicity assay; extracellular media from 1138-5 transfected HeLa cells: 1.8 ng/mL

B3: human TNFR2 Δ7 with His-tag, from clone 1319-1 transfected HeLa cells (receptor)
chain: LPAQVAFTPYAPEPGSTCRLREYYDQTAQMCCSKCSPGQHAKVFCTKTSDTVCDSCEDSTYTQLWNWVPECLSCGSRCSSDQVETQACTREQNRICTCRPGWYCALSKQEGCRLCAPLRKCRPGFGVARPGTETSDVVCKPCAPGTFSNTTSSTDICRPHQICNVVAIPGNASMDAVCTSTSPTRSMAPGAVHLPQPVSTRSQHTQPTPEPSTAPSTSFLLPMGPSPPAEGSTGDFALPVEKPLCLQREAKVPHLPADKARGTQGPEQQHLLITAPSSSSSSLESSASALDRRAPTRNQPQAPGVEASGAGEARASTGSSDSSPGGHGTQVNVTCIVNVCSSSDHSSQCSSQASSTMGDTDSSPSESPKDEQVPFSKEECAFRSQLETPETLLGSTEEKPLPLGVPDAGMKPSKGQDNSADIQHSGGRSSLEGPRFEGKPIPNPLLGLDSTRTGHHHHHH
modifications: variably glycosylated
EC50, L929 cytotoxicity assay; extracellular media from 1319-1 transfected HeLa cells: 1.7 ng/mL

B4: mouse TNFR2 Δ7 (SSO-induced, in serum of SSO 3274 or SSO 3305 treated mice) (receptor)
chain: VPAQVVLTPYKPEPGYECQISQEYYDRKAQMCCAKCPPGQYVKHFCNKTSDTVCADCEASMYTQVWNQFRTCLSCSSSCTTDQVEIRACTKQQNRVCACEAGRYCALKTHSGSCRQCMRLSKCGPGFGVASSRAPNGNVLCKACAPGTFSDTTSSTDVCRPHRICSILAIPGNASTDAVCAPESPTLSAIPRTLYVSQPEPTRSQPLDQEPGPSQTPSILTSLGSTPIIEQSTKGGISLPIEKPSCLQRDAKVPHVPDEKSQDAVGLEQQHLLTTAPSSSSSSLESSASAGDRRAPPGGHPQARVMAEAQGFQEARASSRISDSSHGSHGTHVNVTCIVNVCSSSDHSSQCSSQASATVGDPDAKPSASPKDEQVPFSQEECPSQSPCETTETLQSHEKPLPLGVPDMGMKPSQAGWFDQIAVKVA
EC50, L929 cytotoxicity assay; SSO 3274 treated mice serum: 0.8 ng/mL | EC50, L929 cytotoxicity assay; SSO 3305 treated mice serum: 0.6 ng/mL
